From US20190134153A1, “IMMUNOMODULATORY EFFECT OF INHALED KINASE INHIBITOR PEPTIDES IN LUNG” (MOERAE MATRIX, INC., priority 2017, published 2019)

Legend:
Assay in all cases: Kinase Profiling Assay
Settings in all cases: 100 μM
ZAP-70(h) = molecular target: T1, ZAP-70(h) (Homo sapiens, UniProt P43403); assay type: biochemical
T1 sequence (P43403 1-619): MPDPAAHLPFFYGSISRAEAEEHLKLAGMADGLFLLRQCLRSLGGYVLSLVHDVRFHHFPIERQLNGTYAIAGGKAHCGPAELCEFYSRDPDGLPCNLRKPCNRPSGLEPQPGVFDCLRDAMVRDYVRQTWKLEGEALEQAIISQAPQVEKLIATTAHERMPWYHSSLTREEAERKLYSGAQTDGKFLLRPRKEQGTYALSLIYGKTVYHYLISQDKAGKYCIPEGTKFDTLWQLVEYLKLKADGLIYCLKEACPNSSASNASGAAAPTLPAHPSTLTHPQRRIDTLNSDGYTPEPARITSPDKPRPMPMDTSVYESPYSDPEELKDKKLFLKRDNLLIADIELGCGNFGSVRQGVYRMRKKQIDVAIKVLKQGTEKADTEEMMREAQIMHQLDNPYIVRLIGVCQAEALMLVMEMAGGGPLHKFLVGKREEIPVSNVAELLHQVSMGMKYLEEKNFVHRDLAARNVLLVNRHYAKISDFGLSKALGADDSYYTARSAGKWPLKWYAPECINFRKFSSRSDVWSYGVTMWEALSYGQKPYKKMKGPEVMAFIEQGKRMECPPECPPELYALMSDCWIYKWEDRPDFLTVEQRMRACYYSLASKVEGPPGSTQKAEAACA

LIMK1(h) = LIMK1(h) (Homo sapiens, UniProt P53667); assay type: biochemical
LIMK1(h), sequence (P53667 whole entry): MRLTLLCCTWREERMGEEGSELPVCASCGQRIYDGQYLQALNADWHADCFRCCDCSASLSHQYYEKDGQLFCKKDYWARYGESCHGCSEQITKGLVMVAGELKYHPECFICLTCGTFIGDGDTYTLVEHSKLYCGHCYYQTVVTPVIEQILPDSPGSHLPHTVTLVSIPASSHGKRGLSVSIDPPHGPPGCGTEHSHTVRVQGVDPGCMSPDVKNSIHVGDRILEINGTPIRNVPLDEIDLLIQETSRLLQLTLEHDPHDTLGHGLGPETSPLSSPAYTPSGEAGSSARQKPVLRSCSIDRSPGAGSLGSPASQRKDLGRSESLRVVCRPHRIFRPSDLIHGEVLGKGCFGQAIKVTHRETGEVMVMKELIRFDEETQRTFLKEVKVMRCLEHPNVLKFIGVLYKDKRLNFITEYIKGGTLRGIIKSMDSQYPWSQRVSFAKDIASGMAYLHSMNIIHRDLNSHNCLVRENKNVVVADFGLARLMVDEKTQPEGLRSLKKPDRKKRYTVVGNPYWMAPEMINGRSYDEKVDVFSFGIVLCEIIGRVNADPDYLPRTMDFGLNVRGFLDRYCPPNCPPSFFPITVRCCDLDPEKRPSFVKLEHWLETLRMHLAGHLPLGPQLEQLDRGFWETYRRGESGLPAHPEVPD

PASK(h) = PASK(h) (Homo sapiens, UniProt Q96RG2); assay type: biochemical
PKCζ(h) = molecular target: T2, PKCζ(h) (Homo sapiens, UniProt Q05513); assay type: biochemical
T2 sequence (Q05513 1-592): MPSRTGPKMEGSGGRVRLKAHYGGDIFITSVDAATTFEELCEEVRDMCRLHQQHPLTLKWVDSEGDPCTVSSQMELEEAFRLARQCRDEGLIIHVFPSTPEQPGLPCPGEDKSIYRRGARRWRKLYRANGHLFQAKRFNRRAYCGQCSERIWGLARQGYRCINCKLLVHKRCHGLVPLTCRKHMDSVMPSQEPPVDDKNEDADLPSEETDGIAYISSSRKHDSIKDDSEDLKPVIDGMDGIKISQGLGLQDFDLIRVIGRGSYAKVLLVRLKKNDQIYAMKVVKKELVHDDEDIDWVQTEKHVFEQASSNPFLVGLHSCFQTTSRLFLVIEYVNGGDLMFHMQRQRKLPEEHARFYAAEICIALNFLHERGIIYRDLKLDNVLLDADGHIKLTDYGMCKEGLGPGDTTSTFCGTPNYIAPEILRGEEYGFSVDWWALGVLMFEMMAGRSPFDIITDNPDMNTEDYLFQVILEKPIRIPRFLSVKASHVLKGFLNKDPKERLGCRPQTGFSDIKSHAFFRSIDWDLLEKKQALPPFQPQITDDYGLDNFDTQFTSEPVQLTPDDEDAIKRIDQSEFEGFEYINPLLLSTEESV

MAPKAP-K3(h) = MAPKAP-K3(h) (Homo sapiens, UniProt Q16644); assay type: biochemical
MAPKAP-K3(h), sequence (Q16644 whole entry): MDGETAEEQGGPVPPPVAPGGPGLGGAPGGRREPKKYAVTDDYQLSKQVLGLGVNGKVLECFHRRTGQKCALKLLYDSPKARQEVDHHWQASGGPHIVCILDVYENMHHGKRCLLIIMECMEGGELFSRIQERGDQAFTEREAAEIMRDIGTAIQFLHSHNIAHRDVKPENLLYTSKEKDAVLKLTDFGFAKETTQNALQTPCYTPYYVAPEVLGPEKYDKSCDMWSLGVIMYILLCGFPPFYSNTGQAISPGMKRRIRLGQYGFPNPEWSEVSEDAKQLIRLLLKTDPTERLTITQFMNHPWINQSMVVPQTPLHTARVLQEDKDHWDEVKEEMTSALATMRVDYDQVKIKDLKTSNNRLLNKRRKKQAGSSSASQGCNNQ

EphA2(h) = EphA2(h) (Homo sapiens, UniProt P29317); assay type: biochemical
PKCβI(h) = PKCβI(h) (Homo sapiens, UniProt P05771); assay type: biochemical
Abl (Q252H) (h) = Abl (Q252H) (h) (Homo sapiens, UniProt P00519, Q252H); assay type: biochemical
Flt1(h) = Flt1(h) (Homo sapiens, UniProt P17948); assay type: biochemical
Flt1(h), sequence (P17948 27-1338): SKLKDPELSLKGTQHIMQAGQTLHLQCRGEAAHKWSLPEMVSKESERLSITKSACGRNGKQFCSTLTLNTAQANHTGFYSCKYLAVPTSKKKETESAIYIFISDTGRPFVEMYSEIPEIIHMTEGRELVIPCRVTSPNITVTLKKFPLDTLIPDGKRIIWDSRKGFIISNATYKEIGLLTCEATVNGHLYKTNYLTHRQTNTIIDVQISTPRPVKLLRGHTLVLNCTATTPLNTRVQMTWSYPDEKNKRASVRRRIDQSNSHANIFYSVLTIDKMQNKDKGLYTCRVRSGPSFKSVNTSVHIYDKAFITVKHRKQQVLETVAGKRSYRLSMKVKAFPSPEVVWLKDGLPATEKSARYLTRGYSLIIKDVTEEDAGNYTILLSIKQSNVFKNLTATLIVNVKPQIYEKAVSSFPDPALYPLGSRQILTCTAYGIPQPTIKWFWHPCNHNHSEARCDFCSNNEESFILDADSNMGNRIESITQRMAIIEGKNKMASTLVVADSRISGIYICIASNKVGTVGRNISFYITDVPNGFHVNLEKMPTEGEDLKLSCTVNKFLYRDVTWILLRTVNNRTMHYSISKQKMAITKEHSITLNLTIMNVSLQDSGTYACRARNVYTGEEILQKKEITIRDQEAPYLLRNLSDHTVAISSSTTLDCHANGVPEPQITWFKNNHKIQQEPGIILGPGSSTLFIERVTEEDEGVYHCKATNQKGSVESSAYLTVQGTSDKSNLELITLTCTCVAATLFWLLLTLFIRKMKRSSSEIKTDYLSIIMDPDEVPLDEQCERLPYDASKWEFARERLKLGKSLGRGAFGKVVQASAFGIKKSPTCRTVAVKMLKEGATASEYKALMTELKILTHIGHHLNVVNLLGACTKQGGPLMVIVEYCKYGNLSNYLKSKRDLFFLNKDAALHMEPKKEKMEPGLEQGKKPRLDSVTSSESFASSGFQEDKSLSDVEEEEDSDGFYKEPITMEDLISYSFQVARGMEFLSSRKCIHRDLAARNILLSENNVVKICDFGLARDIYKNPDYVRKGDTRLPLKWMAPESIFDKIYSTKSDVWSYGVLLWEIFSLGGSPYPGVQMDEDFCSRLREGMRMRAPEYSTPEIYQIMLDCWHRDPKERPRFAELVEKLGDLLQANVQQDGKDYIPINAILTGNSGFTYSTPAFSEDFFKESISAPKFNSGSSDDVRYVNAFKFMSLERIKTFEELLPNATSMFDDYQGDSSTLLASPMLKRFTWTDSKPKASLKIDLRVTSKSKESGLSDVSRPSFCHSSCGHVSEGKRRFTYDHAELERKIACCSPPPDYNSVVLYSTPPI

PDGFRβ(h) = PDGFRβ(h) (Homo sapiens, UniProt P09619); assay type: biochemical
EphA5(h) = EphA5(h) (Homo sapiens, UniProt P54756); assay type: biochemical
Rsk3(h) = Rsk3(h) (Homo sapiens, UniProt Q15349); assay type: biochemical
Flt3(D835Y)(h) = Flt3(D835Y)(h) (Homo sapiens, UniProt P36888, D835Y); assay type: biochemical
Itk(h) = molecular target: T3, Itk(h) (Homo sapiens, UniProt Q08881); assay type: biochemical
T3 sequence (Q08881 1-620): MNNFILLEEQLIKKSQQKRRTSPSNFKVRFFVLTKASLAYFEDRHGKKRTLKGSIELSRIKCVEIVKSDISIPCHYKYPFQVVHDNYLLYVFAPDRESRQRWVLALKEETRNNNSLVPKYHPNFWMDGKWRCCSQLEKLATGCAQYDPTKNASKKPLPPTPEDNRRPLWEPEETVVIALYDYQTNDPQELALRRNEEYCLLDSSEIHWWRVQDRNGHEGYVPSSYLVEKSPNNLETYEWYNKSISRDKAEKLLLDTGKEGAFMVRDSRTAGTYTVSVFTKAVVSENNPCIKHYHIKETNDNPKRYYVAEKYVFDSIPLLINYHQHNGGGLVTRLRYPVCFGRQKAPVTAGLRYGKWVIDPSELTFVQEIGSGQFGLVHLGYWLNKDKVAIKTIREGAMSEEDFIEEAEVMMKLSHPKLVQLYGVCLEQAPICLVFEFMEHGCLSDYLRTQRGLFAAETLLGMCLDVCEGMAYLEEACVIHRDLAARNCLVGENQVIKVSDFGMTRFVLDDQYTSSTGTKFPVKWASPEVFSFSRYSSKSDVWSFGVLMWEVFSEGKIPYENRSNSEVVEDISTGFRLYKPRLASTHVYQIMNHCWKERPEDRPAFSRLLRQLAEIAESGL

AMPKα1(h) = AMPKα1(h) (Homo sapiens, UniProt Q13131); assay type: biochemical
AMPKα1(h), sequence (Q13131 whole entry): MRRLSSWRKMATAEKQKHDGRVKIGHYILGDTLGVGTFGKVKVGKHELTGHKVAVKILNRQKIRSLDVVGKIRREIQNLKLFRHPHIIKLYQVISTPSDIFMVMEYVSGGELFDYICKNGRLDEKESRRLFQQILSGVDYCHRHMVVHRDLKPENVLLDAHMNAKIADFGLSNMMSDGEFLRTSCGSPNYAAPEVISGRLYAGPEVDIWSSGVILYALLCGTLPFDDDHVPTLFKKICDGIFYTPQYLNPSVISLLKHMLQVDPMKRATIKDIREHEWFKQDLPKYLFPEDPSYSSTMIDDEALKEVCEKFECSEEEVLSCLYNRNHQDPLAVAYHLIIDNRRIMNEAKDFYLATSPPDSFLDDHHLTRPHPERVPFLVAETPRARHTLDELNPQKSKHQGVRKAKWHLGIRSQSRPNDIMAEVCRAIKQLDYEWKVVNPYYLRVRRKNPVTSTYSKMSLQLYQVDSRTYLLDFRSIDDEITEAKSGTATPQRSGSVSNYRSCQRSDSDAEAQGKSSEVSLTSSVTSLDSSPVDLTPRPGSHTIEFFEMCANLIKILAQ
AMPKα1(h), sequence (Q9Y478 whole entry partner): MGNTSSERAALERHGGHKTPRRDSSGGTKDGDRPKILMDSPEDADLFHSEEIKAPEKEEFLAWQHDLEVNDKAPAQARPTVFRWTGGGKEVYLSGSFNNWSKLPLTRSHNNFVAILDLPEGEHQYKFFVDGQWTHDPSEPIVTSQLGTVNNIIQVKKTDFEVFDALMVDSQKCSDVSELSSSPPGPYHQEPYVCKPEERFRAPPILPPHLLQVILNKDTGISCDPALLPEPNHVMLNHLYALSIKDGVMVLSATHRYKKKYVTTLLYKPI
AMPKα1(h), sequence (P54619 whole entry partner): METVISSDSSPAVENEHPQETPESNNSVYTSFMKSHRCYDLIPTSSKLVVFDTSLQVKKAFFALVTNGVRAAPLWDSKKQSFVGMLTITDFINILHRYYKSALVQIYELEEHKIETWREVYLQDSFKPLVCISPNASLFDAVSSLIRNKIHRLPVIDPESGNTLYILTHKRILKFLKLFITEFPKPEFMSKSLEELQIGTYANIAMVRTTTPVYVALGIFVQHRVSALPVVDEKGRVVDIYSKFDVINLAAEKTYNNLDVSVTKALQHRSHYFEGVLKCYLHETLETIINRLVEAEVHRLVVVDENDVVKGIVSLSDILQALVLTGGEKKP

Tie2(h) = Tie2(h) (Homo sapiens, UniProt Q02763); assay type: biochemical
Tie2(h), sequence (Q02763 23-1124): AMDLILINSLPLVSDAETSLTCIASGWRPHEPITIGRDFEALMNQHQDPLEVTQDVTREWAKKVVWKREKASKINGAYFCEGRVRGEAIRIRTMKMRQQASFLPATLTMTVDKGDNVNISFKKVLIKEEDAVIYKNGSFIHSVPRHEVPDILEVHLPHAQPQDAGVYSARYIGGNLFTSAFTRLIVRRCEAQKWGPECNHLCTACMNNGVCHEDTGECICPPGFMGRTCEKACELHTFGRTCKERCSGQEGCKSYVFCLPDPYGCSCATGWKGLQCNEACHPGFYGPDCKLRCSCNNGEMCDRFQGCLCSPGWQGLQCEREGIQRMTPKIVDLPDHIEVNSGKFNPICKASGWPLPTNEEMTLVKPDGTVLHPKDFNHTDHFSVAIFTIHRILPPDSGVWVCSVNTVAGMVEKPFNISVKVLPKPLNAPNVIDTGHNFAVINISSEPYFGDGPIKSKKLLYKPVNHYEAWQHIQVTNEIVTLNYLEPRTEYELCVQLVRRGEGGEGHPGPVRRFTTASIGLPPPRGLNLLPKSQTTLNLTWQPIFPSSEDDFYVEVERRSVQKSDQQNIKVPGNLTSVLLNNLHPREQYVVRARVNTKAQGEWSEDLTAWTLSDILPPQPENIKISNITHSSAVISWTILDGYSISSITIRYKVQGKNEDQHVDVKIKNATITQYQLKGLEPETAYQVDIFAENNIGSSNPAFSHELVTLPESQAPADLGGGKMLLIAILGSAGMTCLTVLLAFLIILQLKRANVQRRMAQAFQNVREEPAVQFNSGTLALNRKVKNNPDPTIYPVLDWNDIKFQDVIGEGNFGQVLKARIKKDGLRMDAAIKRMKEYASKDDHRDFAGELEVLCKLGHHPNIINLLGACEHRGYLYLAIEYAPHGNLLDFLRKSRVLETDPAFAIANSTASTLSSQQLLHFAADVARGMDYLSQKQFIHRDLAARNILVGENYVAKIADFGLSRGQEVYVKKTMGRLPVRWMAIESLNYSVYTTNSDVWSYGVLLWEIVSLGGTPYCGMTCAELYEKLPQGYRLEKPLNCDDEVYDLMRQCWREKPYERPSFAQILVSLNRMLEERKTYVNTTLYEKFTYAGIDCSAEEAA

MLCK(h) = assay type: biochemical, human
Met(Y1248H)(h) = Met(Y1248H)(h) (Homo sapiens, UniProt P08581, Y1230H); assay type: biochemical

FAKLAARLYRKALARQLGVAA [MMI-0300]
% activity (ZAP-70(h)): 75% | % activity (LIMK1(h)): 88% | % activity (PASK(h)): 29% | % activity (PKCζ(h)): 81% | % activity (MAPKAP-K3(h)): 3% | % activity (EphA2(h)): 31% | % activity (PKCβI(h)): 78% | % activity (Abl (Q252H) (h)): 82% | % activity (Flt1(h)): 69% | % activity (PDGFRβ(h)): 81% | % activity (EphA5(h)): 18% | % activity (Rsk3(h)): 76% | % activity (Flt3(D835Y)(h)): 80% | % activity (Itk(h)): 77% | % activity (AMPKα1(h)): 71% | % activity (Tie2(h)): 26% | % activity (MLCK(h)): 2%

YARAAARQARAKALNRQLGVA [MMI-0200]
% activity (ZAP-70(h)): 58% | % activity (PASK(h)): 60% | % activity (PKCζ(h)): 98% | % activity (MAPKAP-K3(h)): 39% | % activity (EphA2(h)): 95% | % activity (PKCβI(h)): 98% | % activity (Flt1(h)): 96% | % activity (PDGFRβ(h)): 137% | % activity (EphA5(h)): 123% | % activity (Met(Y1248H)(h)): 153% | % activity (Itk(h)): 98% | % activity (AMPKα1(h)): 108% | % activity (Tie2(h)): 53% | % activity (MLCK(h)): 103%

KAFAKLAARLYRKALARQLGVAA [MMI-0400]
% activity (ZAP-70(h)): 33% | % activity (LIMK1(h)): 92% | % activity (PASK(h)): 28% | % activity (PKCζ(h)): 75% | % activity (MAPKAP-K3(h)): 7% | % activity (EphA2(h)): 17% | % activity (PKCβI(h)): 78% | % activity (Abl (Q252H) (h)): 98% | % activity (Flt1(h)): 48% | % activity (PDGFRβ(h)): 53% | % activity (EphA5(h)): 24% | % activity (Rsk3(h)): 71% | % activity (Flt3(D835Y)(h)): 71% | % activity (Met(Y1248H)(h)): 63% | % activity (Itk(h)): 63% | % activity (AMPKα1(h)): 87% | % activity (Tie2(h)): 21% | % activity (MLCK(h)): 1%

HRRIKAWLKKIKALARQLGVAA [MMI-0500]
% activity (ZAP-70(h)): 1% | % activity (LIMK1(h)): 87% | % activity (PASK(h)): 9% | % activity (PKCζ(h)): 7% | % activity (MAPKAP-K3(h)): 9% | % activity (PKCβI(h)): 1% | % activity (Abl (Q252H) (h)): 40% | % activity (Flt1(h)): 27% | % activity (PDGFRβ(h)): 40% | % activity (EphA5(h)): 42% | % activity (Rsk3(h)): 23% | % activity (Flt3(D835Y)(h)): 65% | % activity (Met(Y1248H)(h)): 126% | % activity (Itk(h)): 7% | % activity (AMPKα1(h)): 35% | % activity (Tie2(h)): 22% | % activity (MLCK(h)): 0%
